Assays:
[1] = target: human CR2(SCR1-4)-Fc (human)
[2] = target: recombinant wild-type human C3d with its native thioester cysteine intact (C3d^17C) (human) (UniProt P01024); assay: SEC; size exclusion chromatography of C3d^17C in solution (Supplementary Figure S2); monomer and disulphide-linked dimer
[3] = target: recombinant wild-type human C3d with its native thioester cysteine intact (C3d^17C) (human) (UniProt P01024); assay: non-reducing SDS-PAGE; recombinant C3d^17C 'under non-reducing conditions', 'in a similar manner' to C3b (Supplementary Figure S2, not shown)

| geometric mean EC50 of upregulation of CD69 on CD19+ B cells in human PBMC, with anti-IgM F(ab')2 [1] [nM] | geometric mean EC50 of upregulation of CD86 on CD19+ B cells in human PBMC, with anti-IgM F(ab')2 [1] [nM] | stoichiometry N [2] | stoichiometry N [3] | Substance |
| --- | --- | --- | --- | --- |
| 47 | 18 | – | – | chemically-linked dimeric C3d^17C (from UniProt P01024 996-1303) |
| 139 | 59 | – | – | human C3d with a Cys to Ala mutation at position 17(C3d)/1010 (pre-pro C3) (C3d^17A) (from UniProt P01024 996-1303) (domain or fragment) |
| – | – | 2 | 2 | recombinant wild-type human C3d with its native thioester cysteine intact (C3d^17C) (from UniProt P01024 996-1303) (domain or fragment) |
